For experiment [1], the target named is T1, 3-Hydroxypropionyl-CoA dehydratase (Ms3HPCD; 3HPCD; 3-HPCD) (Metallosphaera sedula, UniProt A4YI89).
T1 construct: gene Msed_2001; Met1-Lys256, C-terminal 6xHis tag (pET30a), expressed in E. coli BL21(DE3)-T1R; hexamer (dimer of trimers)
Put plainly: X-ray crystal structure, […] Å. The settings on record: co-purified, CoA not added during expression or purification; substrate binding site between two monomers; crystals at pH 6.2, 20 °C.

The target of experiment [2] is 3-Hydroxypropionyl-CoA dehydratase from Metallosphaera sedula (Metallosphaera sedula). Put plainly: SEC; analytical, Superdex increase 200 10/300 GL, 40 mM Tris-HCl pH 8.0, 150 mM NaCl; 1 mL of 1 mg/mL protein; calibrated with ferritin, conalbumin, carbonic anhydrase, ribonuclease A. On the technique in general: In gel filtration, larger molecules generally elute earlier.

Experiment [3] has the same target. In words: crystal structure; Ms3HPCD in complex with CoA, 1.8 Å, space group P21, six monomers in the asymmetric unit; crystals from 10% PEG 8000, 0.1 M sodium-potassium phosphate pH 6.2, 0.2 M NaCl, 10 mM EDTA, 20 °C.

T1 sequence (A4YI89 whole entry): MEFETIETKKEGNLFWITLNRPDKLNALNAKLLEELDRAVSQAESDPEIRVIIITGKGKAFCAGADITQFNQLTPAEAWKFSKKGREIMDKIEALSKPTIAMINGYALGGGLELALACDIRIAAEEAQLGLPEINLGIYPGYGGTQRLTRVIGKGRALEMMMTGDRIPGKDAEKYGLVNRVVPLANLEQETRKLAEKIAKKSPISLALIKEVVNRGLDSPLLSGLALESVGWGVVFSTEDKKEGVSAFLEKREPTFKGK

Consider `CC(C)(COP(=O)(O)OP(=O)(O)OC[C@H]1O[C@@H](n2cnc3c(N)ncnc32)[C@H](O)[C@@H]1OP(=O)(O)O)[C@@H](O)C(=O)NCCC(=O)NCCS` [CoA], for which the “X-ray crystal structure, 1.8 Å” value in experiment [1] was “In our current structure, the CoA molecule is tightly bound at the substrate binding site”.

“3-Hydroxypropionyl-CoA dehydratase from Metallosphaera sedula (enzyme)”: the stoichiometry N in experiment [2] and in experiment [3] was 6 throughout.

Values taken from PMC6048173, “Structural Insight into Substrate Specificity of 3-Hydroxypropionyl-Coenzyme A Dehydratase from Metallosphaera sedula” (Scientific Reports, 2018).
